The values that follow come from patent US8008452B2, “Phosphorylated Ndr kinase” (Novartis Forschungesstiftung, Zweigniederlassung Friedrich …, priority 2002, dated 2011).

In one series the test system is HA-NDR1. The series can be described thus: HA-NDR1 kinase assay on 12CA5 immunoprecipitates from transfected, treated COS-1 cells. The format is cell-based, human. The note with it: COS1 cells cotransfected with HA-NDR1, treated with OA; versus empty vector. The procedure:
In some experiments, the cells were treated for 60 min with 1 microM okadaic acid in 0.1% N,N-dimethylformamide (DMF) (Alexis Corp.), 50 microM BAPTA-AM (1,2-bis (o-aminophenoxy) ethane-N,N,N′,N′-tetraacetic acid tetra (acetoxy-methyl)ester) in 0.1% diimethylsulfoxide (DMSO; Sigma), or 20 microM thapsigargin in 0.1% DMSO (Alomone) 24 hours after transfection.
Transfected and treated COS-1 cells were washed once with ice-cold PBS, and harvested by rubber policeman in 1 ml ice-cold PBS containing 1 mM Na3VO4 and 20 mM beta-glycerophosphate before lysis in 500 microliters of IP buffer (20 mM Tris-HCl pH 8.0, 150 mM NaCl, 1% Nonidet P-40, 10% glycerol, 1 mM Na3VO4, 20 mM beta-glycerolphosphate, 1 microM microcystin-LR, 50 mM NaF, 0.5 mM PMSF, 4 microM leupeptin, 1 mM benzamidine, and 1 tablet/10 ml IP of Complete protease inhibitors (Roche)). Lysates were centrifuged at 20 000 g for 20 min and triplicate aliquots (200 microg) of supernatant were precleared with protein A-Sepharose (Amersham Pharmacia Biotech) for 60 min and mixed subsequently for 3 h at 4° C. with 12CA5 antibody prebound to protein A-Sepharose (˜1 microg antibody bound to 2 microl beads). The beads were then washed twice with IP buffer, once for 10 min with IP buffer containing 1 M NaCl, once again for 10 min with IP buffer, and finally twice with 20 mM Tris-HCl pH 7.5 containing 4 microM leupeptin and 1 mM benzamidine. […] After 60 min incubation at 30° C., 15 microliters of supernatant were removed, and phosphate incorporation into the substrate peptide determined as described for GST-NDR1 above. […]
To test whether hMOB1 plays a role in NDR activation, myc-hMOB1 or the empty vector was cotransfected with HA-NDR1 in COS1 cells and treated with OA. […] The reactions were resolved on a 10% SDS PAGE and the radioactivity visualised by using a phosphoimager.

The next series has as its target T1, HA-NDR (Homo sapiens, UniProt Q15208).
T1 construct: expressed in transfected cells; host or cells: COS-1 (HA-NDR1)
Description: Autophosphorylation of immunoprecipitated HA-NDR with added GST-MOB or GST. The class given is biochemical. The note with it: added to HA-NDR kinase reactions; GST as control. The protocol: To test whether hMOB1 plays a role in NDR activation, myc-hMOB1 or the empty vector was cotransfected with HA-NDR1 in COS1 cells and treated with OA. 12CA5 immunoprecipitates were then assayed using the peptide kinase assay for HA-NDR kinase activity. […] GST-MOB and GST respectively was added to immunoprecipitated HA-NDR and kinase reaction were performed. The reactions were resolved on a 10% SDS PAGE and the radioactivity visualised by using a phosphoimager.

Series [1] concerns the target T2, GST-NDR1 (Homo sapiens, UniProt Q15208).
T2 construct: made in house; host or cells: E. coli BL21-DE3-pRep4
The series can be described thus: GST-NDR1 in vitro autophosphorylation, incorporated 32P by Cerenkov counting. The class given is biochemical. The note with it: on both Ser281 and Thr444. The procedure:
BL21-DE3-pRep4 E. coli strain was transformed with the pGEX-2T_NDR1 wild type or mutant plasmids. BL21-DE3 is a protease-deficient E. coli strain and pRep4 is a Laclq repressor-bearing plasmid both available commercially. Optionally, if desired, an E. coli strain comprising GroESL can be used, which expresses a chaperone protein that stabilizes the kinase. Mid-logarithmic phase cells were induced with 0.5 mM isopropyl beta-D-thiogalactopyranoside (IPTG) for 4 hours at 30° C. Bacteria were lysed using a French press in the presence of 1 mg/ml lysosyme, and the fusion proteins were purified on glutathione-agarose (Amersham Pharmacia Biotech) as described by the manufacturers. Recombinant proteins were assayed for kinase activity as described below and autophosphorylation was determined after SDS-PAGE separation either by Cerenkov counting or by exposure to a PhosphorImager screen followed by analysis with ImageQuant software (Molecular Dynamics).
In brief, 1 microgram of purified GST-NDR1 (in solution ˜0.5 microM) wild type, kinase dead (K118A), and alanine mutants of phosphorylation residues Thr74, Ser281, and Thr444 were autophosphorylated for 2 hours in vitro without further additions or in the presence of 1 mM CaCl2 and 10 microM bovine S100B. Proteins were visualized on SDS gels using Coomassie Blue R-350 stained SDS-PAGE gel, and [gamma-^32P]ATP-labelled proteins were visualized by autoradiography of the gels developed on a Phosphorimager screen. The amount of incorporated ^32P was quantified by Cerenkov counting.
Target sequence in this assay (Q15208 2-465): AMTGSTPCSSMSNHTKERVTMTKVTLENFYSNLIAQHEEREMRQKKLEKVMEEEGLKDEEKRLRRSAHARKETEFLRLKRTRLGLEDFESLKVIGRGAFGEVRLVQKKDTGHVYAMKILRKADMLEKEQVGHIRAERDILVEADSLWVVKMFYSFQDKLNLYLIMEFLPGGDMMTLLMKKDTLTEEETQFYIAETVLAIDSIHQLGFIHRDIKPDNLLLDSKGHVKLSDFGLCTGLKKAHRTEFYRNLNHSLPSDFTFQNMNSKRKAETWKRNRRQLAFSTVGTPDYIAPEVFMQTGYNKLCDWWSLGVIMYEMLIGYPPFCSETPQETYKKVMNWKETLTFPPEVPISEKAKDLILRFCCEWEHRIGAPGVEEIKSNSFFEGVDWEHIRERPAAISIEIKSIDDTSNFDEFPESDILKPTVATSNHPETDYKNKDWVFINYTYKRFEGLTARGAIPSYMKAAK

Series [2] concerns the target T3, NDR2 (Homo sapiens, UniProt Q9Y2H1).
T3 construct: made in house; host or cells: E. coli (inferred from b139 and b74)
The series can be described thus: NDR2 specific kinase activity in vitro with Ca2+/S100B. The class given is biochemical. The note with it: concentration dependent. The procedure: (§1) All other procedures (including bacterial expression, kinase assays, immunodetection and mass spectrometry) were carried out essentially as described in the Methodology section above.
(§2) The sequence conservation between NDR1 and NDR2 also encompasses the previously defined S100 binding domain of NDR1. Therefore, the in vitro effect of Ca2+/S100B on NDR2 activity was measured in a time and concentration dependent manner. Ca2+/S100B increases the rate of NDR2 autophosphorylation by ˜2-fold after 4 hours of incubation, as measured by mass spectrometry anlaysis, and it stimulates the specific NDR activity in a concentration dependent manner up to ˜4-fold. […] After in vitro incubation of GST-NDR2 in the presence and absence of Ca2+/S100B, the proteins were digested with trypsin, and the resultant mixture was analysed by ESI-MS-MS in a −79 precursor scan, measuring the mass charge ratio (m/z) of all peptide species that liberate a single phosphate group after fragmentation. The identity of 5 NDR2 derived phosphopeptides could be determined in both samples, the GST-NDR2 and the GST-NDR2/Ca2+/S100B.

The target in series [3] is T2, GST-NDR1. Description: GST-NDR1 kinase assay (peptide kinase assay). The format is biochemical. The protocol: 1 microgram of purified recombinant GST-NDR1 wild type and mutants (without further treatment or autophosphorylated for 2 h in the presence or absence of 1 mM CaCl2 and […] (Sigma)) were assayed in 20 microliter of reaction mixture containing 20 mM Tris-HCl pH 7.5, 10 mM MgCl2, 1 mM DTT, 100 microM [gamma-^32P]ATP (˜0.5 microCi/microliter), and 1 mM NDR1 substrate peptide ([…]; SEQ ID NO:22). After 30 mins incubation at 30° C., reactions were stopped with 50 mM EDTA, and 10 microliters of reaction mixture were spotted onto 2 cm^2 squares of P81 phosphocellulose paper (Whatman). These were subsequently washed for 4×5 min and 3×20 min in 1% phosphoric acid and once in acetone before counting in a liquid scintillation counter. One unit of NDR1 activity was defined as the amount which catalyses the phosphorylation of 1 nmol peptide substrate in 1 min.
Specific activity of GST-NDR1 mutants was also measured by a peptide kinase assay as described above. For this purpose, 1 microgram of purified GST-NDR1 wild type and alanine mutants were left without further treatment or autophosphorylated for 2 h in the presence or absence of 1 mM CaCl2 and […].
Target sequence in this assay (Q15208 whole entry): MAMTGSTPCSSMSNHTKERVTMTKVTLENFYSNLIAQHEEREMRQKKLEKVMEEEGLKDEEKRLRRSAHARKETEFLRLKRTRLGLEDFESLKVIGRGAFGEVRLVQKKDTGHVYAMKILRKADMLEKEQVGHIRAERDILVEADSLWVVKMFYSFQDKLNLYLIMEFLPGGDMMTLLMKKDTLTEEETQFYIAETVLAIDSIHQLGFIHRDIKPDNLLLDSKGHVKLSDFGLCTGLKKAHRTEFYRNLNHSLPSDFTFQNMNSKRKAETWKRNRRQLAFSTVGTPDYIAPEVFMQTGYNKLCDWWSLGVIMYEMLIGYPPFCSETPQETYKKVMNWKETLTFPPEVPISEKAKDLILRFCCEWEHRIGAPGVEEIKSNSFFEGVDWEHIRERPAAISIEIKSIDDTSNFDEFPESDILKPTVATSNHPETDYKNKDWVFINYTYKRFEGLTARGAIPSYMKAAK

Series [4] has as its system GST-NDR1. The series can be described thus: Immunodetection of GST-NDR1 phosphorylated on Ser281 or Thr444 after in vitro autophosphorylation. The class given is biochemical, human. The note with it: in vitro autophosphorylation with or without Ca2+/S100B. The procedure:
Either 1 microgram GST-NDR1 or HA-NDR1 immunoprecipitated from 100 microgram COS-1 detergent extracts as described above was separated on 10% SDS-PAGE and immunoblotted 2 h at RT or overnight at 4° C. with anti-Ser281P antisera (1:1000) in the presence of 50 microg/ml competing unphosphopeptide or anti-Thr444P purified antibody (1:500). Both antibodies were detected with horseradish peroxidase-conjugated donkey anti-rabbit Ig antibody (Amersham biosciences) and developed by ECL (chemiluminescence; Amersham Pharmacia Biotech).
To reliably quantify the effect of S100B on NDR1 phosphorylation status, rabbit polyclonal antibodies were raised against phosphoepitopes comprising Ser281 or Thr444. GST-NDR1 mutants were treated essentially as described in Example 2 and detected either with anti-NDR1_C-term antiserum or polyclonal antibodies recognising NDR1 phosphorylated on Ser281 or Thr444.

The target of series [5] is T3, NDR2. The series can be described thus: GST-NDR2 in vitro autophosphorylation with Ca2+/S100B. The format is biochemical. The note with it: after 4 hours of incubation. The protocol: as §1, §2

T3 sequence (Q9Y2H1 whole entry, one chain of several): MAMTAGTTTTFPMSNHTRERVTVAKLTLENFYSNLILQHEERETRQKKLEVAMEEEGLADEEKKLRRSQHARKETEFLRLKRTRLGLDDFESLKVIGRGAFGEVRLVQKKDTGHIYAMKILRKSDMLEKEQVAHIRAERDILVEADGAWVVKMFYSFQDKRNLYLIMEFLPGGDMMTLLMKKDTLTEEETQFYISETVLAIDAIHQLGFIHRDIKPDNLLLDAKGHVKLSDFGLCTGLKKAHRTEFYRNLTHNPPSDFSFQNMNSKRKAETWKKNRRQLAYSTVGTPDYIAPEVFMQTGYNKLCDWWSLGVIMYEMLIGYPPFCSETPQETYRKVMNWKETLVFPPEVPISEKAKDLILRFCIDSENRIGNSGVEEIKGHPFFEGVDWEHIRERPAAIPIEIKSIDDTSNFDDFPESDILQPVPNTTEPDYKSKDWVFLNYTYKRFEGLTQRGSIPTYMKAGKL
T1 sequence (Q15208 whole entry, one chain of several): as the sequence (Q15208 whole entry) above

B1: hMOB1: human MOB1 (GI: 11691898, SEQ ID NO:5), myc-tagged, cotransfected with HA-NDR1 (protein)
chain: MSFLFSSRSSKTFKPKKNIPEGSHQYELLKHAEATLGSGNLRQAVMLPEGEDLNEWIAVNTVDFFNQINMLYGTITEFCTEASCPVMSAGPRYEYHWADGTNIKKPIKCSAPKYIDYLMTWVQDQLDDETLFPSKIGVPFPKNFMSVAKTILKRLFRVYAHIYHQHFDSVMQLQEEAHLNTSFKHFIFFVQEFNLIDRRELAPLQELIEKLGSKDR
modifications: left off: small tags and cut ends
Consider B1, for which the “stimulation of OA stimulated NDR kinase activity by cotransfected myc-hMOB1” value in the series with HA-NDR1 is “two to threefold stimulation”.

B2: GST-hMOB1: GST fusion of hMOB1 added to HA-NDR kinase reactions (protein)
chain: B1 chain
modifications: left off: a dimerising Fc or GST
notes: GST fusion of hMOB1 added to HA-NDR kinase reactions
B2: in the series with HA-NDR, the “effect on NDR autophosphorylation activity” value is reported as “stimulated NDR autophosphorylation activity”.

B3: S100B: bovine S100B, EF-hand Ca2+-binding protein, added with 1 mM CaCl2 (protein)
chain: SELEKAVVALIDVFHQYSGREGDKHKLKKSELKELINNELSHFLEEIKEQEVVDKVMETLDSDGDGECDFQEFMAFVAMITTACHEFFEHE
For B3, in the series with GST-NDR1 [1], the “increase in autophosphorylation of wild-type GST-NDR1 on addition of S100B” value is listed as roughly 2 fold. Further, in the series with NDR2 [2], the “stimulation of specific NDR activity (NDR2)” value is given as roughly 4 fold. Further, the “increase in kinase activity of wild-type GST-NDR1 on addition of S100B” value in the series with GST-NDR1 [3] was roughly 5 fold. The “phosphorylation of GST-NDR1 on Ser281 and Thr444 (phosphospecific antibodies)” value with GST-NDR1 [4] is “enhance phosphorylation on both Ser281 and Thr444”. For the same molecule, the “increase of the rate of NDR2 autophosphorylation” value with NDR2 [5] is reported as roughly 2 fold.
